We go through two molecules from US20140087995A1 (published 2014).

Numbered stars: 1 amine (or outer) side, 2 acyl side, 3 side chain; on linkers, the order of the positions; unused ones are H or OH. Bridge positions count the residues as written; N and C are the ends. Side chains are listed from the residue outwards. Ends that are not written are not given here. * marks the point of attachment. C20 diacid = O=C(O)CCCCCCCCCCCCCCCCCCC(=O)*; γGlu = O=C(O)[C@H](CCC(=O)[*:2])N[*:1]

Assay [1] addresses T1, human calcitonin receptor (human, UniProt P30988 25-474).
T1 construct: whole, on cells; Assayed as cell membranes of BHK tk'ts 13 cells stably transfected with the human calcitonin receptor (Assay VII); also called hCTR; hCT
T1 sequence (looked up): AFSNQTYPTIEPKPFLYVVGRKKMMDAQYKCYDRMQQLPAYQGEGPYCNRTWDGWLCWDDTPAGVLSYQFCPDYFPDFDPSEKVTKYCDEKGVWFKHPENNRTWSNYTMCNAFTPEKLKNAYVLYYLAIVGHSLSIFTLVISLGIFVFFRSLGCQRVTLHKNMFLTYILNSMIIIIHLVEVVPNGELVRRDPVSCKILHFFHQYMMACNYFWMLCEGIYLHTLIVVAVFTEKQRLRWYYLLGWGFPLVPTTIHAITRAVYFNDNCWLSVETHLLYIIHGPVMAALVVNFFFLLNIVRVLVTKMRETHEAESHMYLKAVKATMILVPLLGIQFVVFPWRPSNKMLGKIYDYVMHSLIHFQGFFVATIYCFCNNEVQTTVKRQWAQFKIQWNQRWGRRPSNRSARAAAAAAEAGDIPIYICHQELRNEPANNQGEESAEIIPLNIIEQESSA
In words: SPA competition vs 125I-calcitonin, membranes of BHK cells with human calcitonin receptor (Assay VII). In outline: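 BHK hCTR membranes 35 ng/μL + SPA beads 0.05 mg/well; buffer 50 mM Hepes pH 7.4, 1 mM CaCl2, 5 mM MgCl₂, 0.1% OA, 0.02% Tween20. 120 min, 25° C., shaking. Scintillation count; IC50 by one-site binding competition.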

Assay [2] concerns the target T1, human calcitonin receptor. In words: IC50 at hCTR divided by IC50 at hAmylin-R (SPA competition assays V and VII). In outline:
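Competition binding by SPA uses membrane preparations (35 ng/μL final) in pH 7.4 Hepes buffer with 1 mM CaCl2 and 5 mM MgCl₂. Incubation lasts 120 min at 25° C, and IC₅₀ comes from one-site fitting.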

For assay [3], the target named is T2, human amylin receptor (amylin 3(a) receptor: human calcitonin receptor co-expressed with RAMP-3) (human, UniProt P30988 25-474; O60896 24-148, limits assumed).
T2 construct: whole, on cells; Assayed as cell membranes of BHK570 Amylin 3(a)/CRE-luc cells (Assay V); also called hAmylin-R; hAmylinR
T2 sequence (looked up) 1: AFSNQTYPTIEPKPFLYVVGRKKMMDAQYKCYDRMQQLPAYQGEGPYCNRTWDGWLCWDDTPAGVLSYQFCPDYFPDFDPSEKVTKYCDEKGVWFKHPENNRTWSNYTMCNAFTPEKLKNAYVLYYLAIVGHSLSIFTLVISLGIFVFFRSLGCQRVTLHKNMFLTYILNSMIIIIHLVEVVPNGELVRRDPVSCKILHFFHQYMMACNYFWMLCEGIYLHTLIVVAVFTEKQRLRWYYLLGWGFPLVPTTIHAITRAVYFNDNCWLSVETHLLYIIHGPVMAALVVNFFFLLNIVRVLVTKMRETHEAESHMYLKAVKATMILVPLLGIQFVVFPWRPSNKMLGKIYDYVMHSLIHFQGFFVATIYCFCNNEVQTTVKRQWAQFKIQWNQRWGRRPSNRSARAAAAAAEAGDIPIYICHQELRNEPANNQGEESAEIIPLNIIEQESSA
T2 sequence (looked up) 2: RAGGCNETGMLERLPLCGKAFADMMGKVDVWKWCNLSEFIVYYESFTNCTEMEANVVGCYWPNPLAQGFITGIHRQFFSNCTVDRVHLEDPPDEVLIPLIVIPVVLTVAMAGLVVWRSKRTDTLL
In words: SPA competition vs 125I-rat amylin, membranes of BHK cells with human amylin 3(a) receptor (Assay V). As for the experimental part: The binding assay was performed using scintillation proximity assay (SPA) beads (RPNQ0001) from PerkinElmer and cell membranes from the Amylin 3(a)/CRE-luc cells (as described in Assay (II)) were used. Membranes were prepared in the following way; the cells were rinsed with PBS and incubated with Versene for approximately 5 min before harvesting. The cells were flushed with PBS and the cell-suspension was centrifuged for 5 min at 1000 rpm. Cells were homogenized (ultrathurrax) in a buffer containing 20 mM Na-HEPES and 10 mM EDTA (pH 7.4) and centrifuged at 20.000 rpm for 15 min. The resulting pellet was resuspended, homogenized and centrifuged (20.000 rpm, 15 min) in a buffer containing 20 mM Na-HEPES and 0.1 mM EDTA (pH 7.4, buffer 2). The resulting pellet was resuspended in buffer 2 and protein concentration was measured (BCA protein Assay, Pierce). The homogenate was kept cold during the whole procedure. The membranes were kept at −80° C. until use. The assay was performed in a 384 well Optiplate (PerkinElmer) in a total volume of 40 ul. Membranes were mixed with SPA beads. Final concentration of membranes 35 ng/μL final and SPA beads was 0.05 mg/well. […] Samples were analyzed on TopCounter™ (Packard). The IC₅₀ was calculated using (one site binding competition analysis) GraphPad Prism5 as a measure of receptor affinity.

B1: N^ε1-[(4S)-4-carboxy-4-(19-carboxynonadecanoylamino)butanoyl]-[His14,Arg17,Pro21,Pro27,Pro34]-h-amylin (peptide)
peptide: K([γGlu-C20 diacid])CNTATCATQRLAHFLRHSSPNFGAIPSSTNVGPNTY-NH2
modifications: disulfide 2-7; N-terminus assumed
SMILES: CC[C@H](C)[C@H](NC(=O)[C@H](C)NC(=O)CNC(=O)[C@H](Cc1ccccc1)NC(=O)[C@H](CC(N)=O)NC(=O)[C@@H]1CCCN1C(=O)[C@H](CO)NC(=O)[C@H](CO)NC(=O)[C@H](Cc1c[nH]cn1)NC(=O)[C@H](CCCNC(=N)N)NC(=O)[C@H](CC(C)C)NC(=O)[C@H](Cc1ccccc1)NC(=O)[C@H](Cc1c[nH]cn1)NC(=O)[C@H](C)NC(=O)[C@H](CC(C)C)NC(=O)[C@H](CCCNC(=N)N)NC(=O)[C@H](CCC(N)=O)NC(=O)[C@@H](NC(=O)[C@H](C)NC(=O)[C@@H]1CSSC[C@H](NC(=O)[C@@H](N)CCCCNC(=O)CC[C@H](NC(=O)CCCCCCCCCCCCCCCCCCC(=O)O)C(=O)O)C(=O)N[C@@H](CC(N)=O)C(=O)N[C@@H]([C@@H](C)O)C(=O)N[C@@H](C)C(=O)N[C@@H]([C@@H](C)O)C(=O)N1)[C@@H](C)O)C(=O)N1CCC[C@H]1C(=O)N[C@@H](CO)C(=O)N[C@@H](CO)C(=O)N[C@H](C(=O)N[C@@H](CC(N)=O)C(=O)N[C@H](C(=O)NCC(=O)N1CCC[C@H]1C(=O)N[C@@H](CC(N)=O)C(=O)N[C@H](C(=O)N[C@@H](Cc1ccc(O)cc1)C(N)=O)[C@@H](C)O)C(C)C)[C@@H](C)O
notes: also called compound 67
With B1, the IC50 in assay [1] worked out at 4.63 nM; in assay [3], 0.09 nM. Further, the “Ratio hCT/hAmylin binding” value in assay [2] turned out to be 51.6.

B2: N{-1}-[(4S)-4-carboxy-4-(19-carboxynonadecanoylamino)butanoyl]-Gly[Arg1,His14,Arg17,Pro21,Pro27]-h-amylin (peptide)
peptide: {C20 diacid-γGlu}-GRCNTATCATQRLAHFLRHSSPNFGAIPSSTNVGSNTY-NH2
modifications: disulfide 3-8
SMILES: CC[C@H](C)[C@H](NC(=O)[C@H](C)NC(=O)CNC(=O)[C@H](Cc1ccccc1)NC(=O)[C@H](CC(N)=O)NC(=O)[C@@H]1CCCN1C(=O)[C@H](CO)NC(=O)[C@H](CO)NC(=O)[C@H](Cc1c[nH]cn1)NC(=O)[C@H](CCCNC(=N)N)NC(=O)[C@H](CC(C)C)NC(=O)[C@H](Cc1ccccc1)NC(=O)[C@H](Cc1c[nH]cn1)NC(=O)[C@H](C)NC(=O)[C@H](CC(C)C)NC(=O)[C@H](CCCNC(=N)N)NC(=O)[C@H](CCC(N)=O)NC(=O)[C@@H](NC(=O)[C@H](C)NC(=O)[C@@H]1CSSC[C@H](NC(=O)[C@H](CCCNC(=N)N)NC(=O)CNC(=O)CC[C@H](NC(=O)CCCCCCCCCCCCCCCCCCC(=O)O)C(=O)O)C(=O)N[C@@H](CC(N)=O)C(=O)N[C@@H]([C@@H](C)O)C(=O)N[C@@H](C)C(=O)N[C@@H]([C@@H](C)O)C(=O)N1)[C@@H](C)O)C(=O)N1CCC[C@H]1C(=O)N[C@@H](CO)C(=O)N[C@@H](CO)C(=O)N[C@H](C(=O)N[C@@H](CC(N)=O)C(=O)N[C@H](C(=O)NCC(=O)N[C@@H](CO)C(=O)N[C@@H](CC(N)=O)C(=O)N[C@H](C(=O)N[C@@H](Cc1ccc(O)cc1)C(N)=O)[C@@H](C)O)C(C)C)[C@@H](C)O
notes: also called compound 99
Regarding B2, the IC50 amounted to 35 nM in assay [1] and 0.348 nM in assay [3]. In addition, the “Ratio hCT/hAmylin binding” value in assay [2] is 100.

Usually IC50 stands for the point on the concentration scale where inhibition reaches its midpoint.
